Here are results for 4 molecules from US20230087378A1 (UCB, published 2023).

The target of assay [1] is T1, Human IL-13 (human, UniProt P35225 35-146). Put plainly: SPR, 100 nM IL-13Rα2 injected over IL-13 held by captured UCBXXXX (competitor).
For assay [2], the target named is Human IL-17A (human, UniProt Q16552 24-155). Put plainly: SPR (Biacore T200), antibody captured on anti-human F(ab')2, human IL-17A as analyte, 25 C, 1:1 model. The protocol: (§1) A goat anti-human IgG, F(ab′)₂ fragment specific antibody (Jackson ImmunoResearch) was immobilised on a CM5 Sensor Chip via amine coupling chemistry to a level of approximately 5000 RU. […] At the end of each cycle the surface was regenerated at a flowrate of 10 μl/min using a 60 s injection of 50 mM HCl followed by a 30 s injection of 5 mM NaOH and a final 60 s injection of 50 mM HCl. […] Buffer blank injections were included to subtract instrument noise and drift.
(§2) Kinetic parameters were determined using a 1:1 binding model using Biacore T200 Evaluation software (version 3.0).

Assay [3] addresses T1, Human IL-13. Put plainly: SPR (Biacore T200), antibody captured on anti-human F(ab')2, human IL-13 as analyte, 25 C, 1:1 model. The protocol:
as §1, §2

Assay [4] deals with T2, Human IL-17F (human, UniProt Q96PD4 31-163).
T2 sequence (looked up): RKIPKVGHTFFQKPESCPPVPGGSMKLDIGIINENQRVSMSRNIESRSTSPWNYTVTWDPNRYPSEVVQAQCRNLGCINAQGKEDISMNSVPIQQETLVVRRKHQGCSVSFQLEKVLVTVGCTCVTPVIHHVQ
The assay can be described thus: SPR (Biacore T200), antibody captured on anti-human F(ab')2, human IL-17F as analyte, 25 C, 1:1 model. The protocol:
as §1, §2

For assay [5], the target named is T1, Human IL-13. The assay can be described thus: SPR, antibody captured on anti-human F(ab')2, 25 nM IL-13 injected.

For the molecule “IL-13Rα2 (from UniProt Q14627 27-343) (receptor)”, the IL-13Rα2 Binding (RU) in assay [1] is 0.3 RU.
In assay [2], “BITS7201A (Genentech) (bispecific antibody)” had a Kd of 84.4 pM, a koff of 0.00106 s⁻¹ and a kon of 1.27e+07 M⁻¹ s⁻¹. Besides, in assay [3], the Kd worked out at 27.5 pM, the off-rate constant (koff) was 5.69e-05 s⁻¹ and the kon was found to be 2.05e+06 M⁻¹ s⁻¹. In assay [4], the Kd worked out at 74.4 pM, the koff is 0.000574 s⁻¹ and the kon is 7.71e+06 M⁻¹ s⁻¹. In assay [5], the IL-13 Binding (RU) is 8.6 RU.

B1: DVD2166 (Abbvie) (bispecific antibody)
chain 1: EVQLVQSGAEVKKPGASVKVSCKASGYTFTTYGVSWVRQAPGQGLEWMGEIYPGNYNTYYNEKFRGRVTMTTDTSTSTAYMELRSLRSDDTAVYYCARWRTSYFSDYGYFDYWGQGTTVTVSSASTKGPEVQLVQSGAEVKKPGSSVKVSCKASGYTFTDYEIHWVRQAPGQGLEWMGVNDPESGGTFYNQKFDGRVTLTADESTSTAYMELSSLRSEDTAVYYCTRYSKWDSFDGMDYWGQGTTVTVSS
chain 2: DVVMTQSPLSLPVTLGQPASISCRSSQSLVHSHGNTYLHWYQQRPGQSPRLLIYTVSNRFSGVPDRFSGSGSGTDFTLKISRVEAEDVGVYYCSQSTHVPYTFGGGTKVEIKRTVAAPDIQMTQSPSSLSASVGDRVTITCRASSGIISYIDWFQQKPGKAPKRLIYATFDLASGVPSRFSGSGSGTDYTLTISSLQPEDFATYYCRQVGSYPETFGQGTKLEIKR
On to B1, for which, in assay [2], the Kd came to 137 pM, the off-rate constant (koff) is 7.68e-05 s⁻¹ and the kon stood at 559000 M⁻¹ s⁻¹. In assay [3], the Kd was found to be 18.4 pM, the koff turned out to be 1.5e-05 s⁻¹ and the kon was 816000 M⁻¹ s⁻¹.

B2: DVD2174 (Abbvie) (bispecific antibody)
chain 1: EVQLVQSGAEVKKPGASVKVSCKASGYTFTTYGVSWVRQAPGQGLEWMGEIYPGNYNTYYNEKFRGRVTMTTDTSTSTAYMELRSLRSDDTAVYYCARWRTSYFSDYGYFDYWGQGTTVTVSSASTKGPEVQLVQSGAEVKKPGSSVKVSCKASGGSFGGYGIGWVRQAPGQGLEWMGGITPFFGFADYAQKFQGRVTITADESTTTAYMELSGLTSDDTAVYYCARDPNEFWNGYYSTHDFDSWGQGTTVTVSS
chain 2: DVVMTQSPLSLPVTLGQPASISCRSSQSLVHSHGNTYLHWYQQRPGQSPRLLIYTVSNRFSGVPDRFSGSGSGTDFTLKISRVEAEDVGVYYCSQSTHVPYTFGGGTKVEIKRTVAAPSVFIFPPEIVLTQSPDFQSVTPKEKVTITCRASQDIGSELHWYQQKPDQPPKLLIKYASHSTSGVPSRFSGSGSGTDFTLTINGLEAEDAGTYYCHQTDSLPYTFGPGTKVDIKR
As for B2, in assay [2], binding was characterised by a dissociation constant (Kd) of 268 pM, the dissociation rate constant (koff) was determined as 0.000128 s⁻¹ and the kon was found to be 476000 M⁻¹ s⁻¹. In assay [3], this molecule yielded a Kd of 56.3 pM, a koff of 3.66e-05 s⁻¹ and an on-rate constant (kon) of 650000 M⁻¹ s⁻¹.
